In test [1] the target is T1, N-terminal FLAG-tagged cynomolgus monkey ROBO4, cynoROBO4-1 (pCI-FLAG-cynoROBO4-1) (cynomolgus monkey, UniProt Q8WZ75 28-1007 (human entry)).
T1 chain: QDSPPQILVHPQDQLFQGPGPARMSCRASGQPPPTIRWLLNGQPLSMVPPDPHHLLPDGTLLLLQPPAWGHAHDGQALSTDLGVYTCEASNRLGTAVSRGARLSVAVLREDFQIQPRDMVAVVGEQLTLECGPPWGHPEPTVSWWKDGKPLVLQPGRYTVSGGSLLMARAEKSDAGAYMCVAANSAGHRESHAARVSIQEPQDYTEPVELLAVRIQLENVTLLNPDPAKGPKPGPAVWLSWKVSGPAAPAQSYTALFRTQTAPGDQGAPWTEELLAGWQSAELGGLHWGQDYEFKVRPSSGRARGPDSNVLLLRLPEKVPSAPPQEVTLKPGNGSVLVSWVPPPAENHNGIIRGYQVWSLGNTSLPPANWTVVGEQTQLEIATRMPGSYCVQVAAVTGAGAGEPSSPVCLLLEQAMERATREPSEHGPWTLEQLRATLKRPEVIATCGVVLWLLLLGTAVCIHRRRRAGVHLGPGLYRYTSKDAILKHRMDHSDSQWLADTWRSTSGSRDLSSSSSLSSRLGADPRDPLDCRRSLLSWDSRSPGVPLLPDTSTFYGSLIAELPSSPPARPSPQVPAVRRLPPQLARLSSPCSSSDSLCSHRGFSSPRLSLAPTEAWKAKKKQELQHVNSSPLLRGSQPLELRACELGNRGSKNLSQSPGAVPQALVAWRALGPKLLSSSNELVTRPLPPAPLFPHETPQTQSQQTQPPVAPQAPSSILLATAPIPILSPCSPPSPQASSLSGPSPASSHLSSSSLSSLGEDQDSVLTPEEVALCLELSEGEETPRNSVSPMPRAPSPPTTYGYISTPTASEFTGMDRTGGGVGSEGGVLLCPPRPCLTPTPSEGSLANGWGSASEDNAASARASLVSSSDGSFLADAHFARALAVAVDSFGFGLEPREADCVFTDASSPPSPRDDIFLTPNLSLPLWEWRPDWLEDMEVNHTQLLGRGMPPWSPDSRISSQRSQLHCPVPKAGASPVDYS
Nature of the test: flow cytometry (FC500), HEK293 cells transfected with pCI-FLAG-cynoROBO4-1, antibody at 10 µg/mL, FITC goat anti-human IgG Fc; control histogram IgG (human IgG). (In flow cytometry, cells or beads pass a laser one at a time.)

The target in test [2] is T1, N-terminal FLAG-tagged cynomolgus …. Nature of the test: flow cytometry, HEK293 cells transfected with pCI-FLAG-cynoROBO4-1, antibody at 10 µg/mL, anti-mouse IgG FITC; control histogram IgG (Mouse IgG2a). As for the experimental part: HEK293 cells were inoculated at a concentration of 1.5×10⁶ cells/dish to a 60-mm dish (manufactured by Corning Inc.) and cultured overnight in a DMEM medium containing 10% FBS at 37° C. under 5% CO₂ conditions. On the next day, the HEK293 cells were transfected with pCI-hROBO4, pCI-mROBO4, pCI-raROBO4, pCI-FLAG-cynoROBO4-1, pCI-FLAG-cynoROBO4-2, pCI-hROBO1, pCI-hROBO2, or pCI-hROBO3 using FuGENE6 Transfection Reagent and further cultured overnight at 37° C. under 5% CO₂ conditions. On the next day, the expression vector-transfected cells were treated with TrypLE Express (manufactured by Life Technologies Corp.), washed with PBS containing 5% FBS, and then suspended in PBS containing 5% FBS. The obtained cell suspension was used in flow cytometry analysis.
Each cell suspension prepared in 4)-3-1 was centrifuged, and the supernatant was removed. Then, MAb1 or a negative control Mouse IgG2a was added at a concentration of 10 μg/mL to 2×10⁵ expression vector-transfected cells, and the resulting suspension was left standing at 4° C. for 1 hour. […] Data was analyzed using Flowjo. The histogram of FITC fluorescence intensity was prepared. The antibody was determined to bind in a cross-species manner when the histogram of MAb1 was shifted to a stronger fluorescence intensity region compared with the histogram of the negative control Mouse IgG2a.

B1: humanized MAb1 antibody H-1143 (antibody, human IgG2, kappa, V domains shown)
VH: EVQLVESGGGLVQPGGSLRLSCAASGFTFSTYAMSWVRQAPGKGLEWVATISQGGTYTYYPDSVKGRFTISRDNAKNTLYLQMNSLRAEDTAVYYCARLIYYDYLDYWGQGTLVTVSS
VL: DIVMTQSPLSLPVTLGEPASISCRSSQSLENENKNLYLNWYLQKPGQSPQLLIYRVSNRFSGVPDRFSGSGSGTDFTLKISRVEAEDVGVYYCLQVTHVPWTFGPGTKVDIKR
notes: Human IgG2 / kappa constant regions; also called hMAb1-H2-type heavy chain + hMAb1-L2-type light chain
For the molecule B1, the binding result in test [1] is “binds”.

B2: anti-ROBO4 mouse monoclonal antibody MAb1 (antibody, mouse IgG1, V domains shown)
VH: EVQLVESGGGLVKPGGSLKLSCAASGFTFSTYAMSWVRQTPEKRLEWVATISNGGTYTYYPDSVKGRFTISRDNAENTLYLQMSSLRSEDTAMYFCARLIYYDYLDYWGHGTTLTVSS
VL: DAVMTQTPLSLPVSLGDQASISCRSSQSLENSNGNTYLNWYFQKPGQSPQLLIYRVSNRFSGVLDRFSGSGSGTDFTLKISRVEAEDFGVYFCLQVTHVPWTFGGGTKLEIKR
notes: Mouse IgG1 (gamma1), kappa light chain, purified from hybridoma supernatant; also called parent antibody MAb1
Take B2: the binding result in test [2] is reported as “binds”.
